How the values were obtained:
[1] = target: Histone H4 in lysates of FLAG-NME1 HEK 293 cells (human) (UniProt P62805); assay: SILAC LC-MS/MS of mAb column eluate E1, FLAG-NME1 293 lysate, untreated over acid/heat-treated
[2] = target: TUBB in lysates of FLAG-NME1 HEK 293 cells (human) (UniProt P07437); assay: as above
[3] = target: GAPDH in lysates of FLAG-NME1 HEK 293 cells (human) (UniProt P04406); assay: as above
[4] = target: ACLY (ATP-citrate lyase) in mammalian cell lysates (human) (UniProt P53396); assay: as above
Chain of ACLY (ATP-citrate lyase) in mammalian cell lysates (human) (P53396 whole entry): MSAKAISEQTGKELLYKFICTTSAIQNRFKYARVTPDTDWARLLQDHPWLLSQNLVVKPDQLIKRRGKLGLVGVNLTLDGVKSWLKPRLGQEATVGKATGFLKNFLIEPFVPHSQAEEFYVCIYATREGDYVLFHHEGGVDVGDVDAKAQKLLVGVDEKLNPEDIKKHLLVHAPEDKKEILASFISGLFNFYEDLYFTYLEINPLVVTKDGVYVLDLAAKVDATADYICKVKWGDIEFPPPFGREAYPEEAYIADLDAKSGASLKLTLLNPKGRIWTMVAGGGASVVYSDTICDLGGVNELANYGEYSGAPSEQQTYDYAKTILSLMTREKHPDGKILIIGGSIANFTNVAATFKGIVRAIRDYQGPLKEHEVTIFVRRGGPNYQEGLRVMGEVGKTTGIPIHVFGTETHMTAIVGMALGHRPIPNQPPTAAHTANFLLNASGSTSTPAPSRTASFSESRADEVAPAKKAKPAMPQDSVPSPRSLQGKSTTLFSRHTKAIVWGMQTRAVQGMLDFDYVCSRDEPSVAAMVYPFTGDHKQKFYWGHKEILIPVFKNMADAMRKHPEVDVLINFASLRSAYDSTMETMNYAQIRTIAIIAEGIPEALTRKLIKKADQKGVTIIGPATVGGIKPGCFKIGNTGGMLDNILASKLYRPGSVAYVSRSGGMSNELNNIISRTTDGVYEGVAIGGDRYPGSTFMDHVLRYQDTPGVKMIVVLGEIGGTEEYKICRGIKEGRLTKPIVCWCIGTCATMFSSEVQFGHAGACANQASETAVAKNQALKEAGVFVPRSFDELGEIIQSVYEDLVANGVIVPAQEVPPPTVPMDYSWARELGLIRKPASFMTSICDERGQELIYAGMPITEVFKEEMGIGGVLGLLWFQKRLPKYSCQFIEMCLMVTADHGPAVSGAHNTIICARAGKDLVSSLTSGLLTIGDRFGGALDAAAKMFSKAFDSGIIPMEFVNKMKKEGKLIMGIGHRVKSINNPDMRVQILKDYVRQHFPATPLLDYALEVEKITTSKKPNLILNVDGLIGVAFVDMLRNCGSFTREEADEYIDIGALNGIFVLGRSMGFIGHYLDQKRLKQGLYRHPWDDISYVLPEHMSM

[5] = target: NME2 in lysates of FLAG-NME1 HEK 293 cells (human) (UniProt P22392); assay: as above
Chain of NME2 in lysates of FLAG-NME1 HEK 293 cells (human) (P22392 whole entry): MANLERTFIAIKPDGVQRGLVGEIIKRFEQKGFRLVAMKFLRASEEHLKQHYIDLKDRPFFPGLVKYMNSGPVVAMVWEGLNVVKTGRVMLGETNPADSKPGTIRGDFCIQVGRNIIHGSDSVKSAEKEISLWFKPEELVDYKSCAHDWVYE

[6] = target: NME1 in lysates of FLAG-NME1 HEK 293 cells (human) (UniProt P15531); assay: as above
Chain of NME1 in lysates of FLAG-NME1 HEK 293 cells (human) (P15531 2-152 limits assumed): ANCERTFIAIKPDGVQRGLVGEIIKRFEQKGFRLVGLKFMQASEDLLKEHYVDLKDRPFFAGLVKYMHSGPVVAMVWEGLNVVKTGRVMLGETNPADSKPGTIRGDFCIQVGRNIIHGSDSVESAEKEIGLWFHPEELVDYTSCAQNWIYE

[7] = target: RPS3A in lysates of FLAG-NME1 HEK 293 cells (human) (UniProt P61247); assay: as above
[8] = target: LDHA in lysates of FLAG-NME1 HEK 293 cells (human) (UniProt P00338); assay: as above
[9] = target: TCP1 in lysates of FLAG-NME1 HEK 293 cells (human) (UniProt P17987); assay: as above
Chain of TCP1 in lysates of FLAG-NME1 HEK 293 cells (human) (P17987 whole entry): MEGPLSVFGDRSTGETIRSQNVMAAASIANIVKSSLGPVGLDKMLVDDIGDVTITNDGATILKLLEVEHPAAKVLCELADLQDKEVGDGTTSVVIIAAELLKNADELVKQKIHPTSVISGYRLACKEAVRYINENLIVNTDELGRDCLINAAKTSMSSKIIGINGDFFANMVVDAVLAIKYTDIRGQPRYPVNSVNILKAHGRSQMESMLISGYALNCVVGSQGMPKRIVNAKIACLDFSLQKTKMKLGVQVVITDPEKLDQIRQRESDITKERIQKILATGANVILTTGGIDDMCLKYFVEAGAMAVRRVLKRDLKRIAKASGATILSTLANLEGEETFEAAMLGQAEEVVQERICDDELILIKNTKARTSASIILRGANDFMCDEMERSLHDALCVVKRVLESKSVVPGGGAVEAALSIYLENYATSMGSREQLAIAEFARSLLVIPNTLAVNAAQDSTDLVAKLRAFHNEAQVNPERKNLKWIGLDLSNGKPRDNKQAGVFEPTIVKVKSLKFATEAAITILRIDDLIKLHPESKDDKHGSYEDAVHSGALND

[10] = target: GNB1 H266 peptide MTYS-X-DNII, X = 1-pTza (mammalian); assay: synthetic peptide dot blot array
[11] = target: ACLY-like H760 peptide AGAG-X-AGAG, X = 1-pTza (mammalian); assay: synthetic peptide dot blot array
[12] = target: NME1 H118 peptide RNII-X-GSDS, X = 1-pTza (mammalian); assay: synthetic peptide dot blot array
[13] = target: Histone H4 H18 peptide GAKR-X-RKVL, X = 1-pTza (mammalian); assay: synthetic peptide dot blot array
[14] = target: Histone H4 in lysates of FLAG-NME1 HEK 293 cells (human) (UniProt P62805); assay: SILAC LC-MS/MS of mAb column eluate E2, FLAG-NME1 293 lysate, untreated over acid/heat-treated
[15] = target: TUBB in lysates of FLAG-NME1 HEK 293 cells (human) (UniProt P07437); assay: as above
[16] = target: GAPDH in lysates of FLAG-NME1 HEK 293 cells (human) (UniProt P04406); assay: as above
[17] = target: ACLY (ATP-citrate lyase) in mammalian cell lysates (human) (UniProt P53396); assay: as above
[18] = target: NME2 in lysates of FLAG-NME1 HEK 293 cells (human) (UniProt P22392); assay: as above
[19] = target: SCS (succinyl-CoA synthetase) in mammalian cell lysates (human) (UniProt P53597); assay: as above
Chain of SCS (succinyl-CoA synthetase) in mammalian cell lysates (human) (P53597 41-346): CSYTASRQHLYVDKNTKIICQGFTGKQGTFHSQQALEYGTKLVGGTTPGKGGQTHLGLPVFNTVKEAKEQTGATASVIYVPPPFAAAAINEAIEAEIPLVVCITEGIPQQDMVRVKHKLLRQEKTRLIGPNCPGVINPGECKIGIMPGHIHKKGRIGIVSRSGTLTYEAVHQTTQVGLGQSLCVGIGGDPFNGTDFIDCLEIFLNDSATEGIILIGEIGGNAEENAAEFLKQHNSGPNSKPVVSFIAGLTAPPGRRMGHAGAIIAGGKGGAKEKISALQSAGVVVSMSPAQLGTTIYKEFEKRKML

[20] = target: PGAM, endogenous, in lysates of FLAG-NME1 HEK 293 cells (human) (UniProt P18669); assay: as above
Chain of PGAM, endogenous, in lysates of FLAG-NME1 HEK 293 cells (human) (P18669 2-254 limits assumed): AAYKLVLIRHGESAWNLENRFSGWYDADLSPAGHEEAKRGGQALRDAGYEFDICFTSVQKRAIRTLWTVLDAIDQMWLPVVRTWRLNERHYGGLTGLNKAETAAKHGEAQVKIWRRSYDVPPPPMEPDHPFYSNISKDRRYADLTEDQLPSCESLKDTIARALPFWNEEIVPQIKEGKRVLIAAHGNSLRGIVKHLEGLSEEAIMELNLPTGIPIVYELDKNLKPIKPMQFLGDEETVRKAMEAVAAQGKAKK

[21] = target: NME1 in lysates of FLAG-NME1 HEK 293 cells (human) (UniProt P15531); assay: as above
[22] = target: YWHAB in lysates of FLAG-NME1 HEK 293 cells (human) (UniProt P31946); assay: as above
Chain of YWHAB in lysates of FLAG-NME1 HEK 293 cells (human) (P31946 whole entry): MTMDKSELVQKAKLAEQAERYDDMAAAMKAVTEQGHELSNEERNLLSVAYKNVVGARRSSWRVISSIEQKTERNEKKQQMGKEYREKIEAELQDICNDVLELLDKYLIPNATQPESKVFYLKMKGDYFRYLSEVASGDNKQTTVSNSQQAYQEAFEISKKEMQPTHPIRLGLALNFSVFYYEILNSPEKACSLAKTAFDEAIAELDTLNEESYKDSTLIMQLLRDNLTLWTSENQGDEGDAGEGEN

[23] = target: RPS3A in lysates of FLAG-NME1 HEK 293 cells (human) (UniProt P61247); assay: as above
[24] = target: LDHA in lysates of FLAG-NME1 HEK 293 cells (human) (UniProt P00338); assay: as above
[25] = target: TCP1 in lysates of FLAG-NME1 HEK 293 cells (human) (UniProt P17987); assay: as above
[26] = target: 506 proteins enriched by at least 2-fold in 3-pHis column elutions E1-E3; assay: SILAC LC-MS/MS of mAb column eluates E1-E3, FLAG-NME1 293 lysate
[27] = target: PGAM, endogenous, in lysates of FLAG-NME1 HEK 293 cells (human) (UniProt P18669); assay: SILAC LC-MS/MS of mAb column eluate E1, FLAG-NME1 293 lysate, untreated over acid/heat-treated
[28] = target: YWHAB in lysates of FLAG-NME1 HEK 293 cells (human) (UniProt P31946); assay: as above
[29] = target: GNB1 in lysates of FLAG-NME1 HEK 293 cells (human, UniProt P62873 2-340, phosphohistidine, annotated site printed H226 in Table 1 (H266 elsewhere)); assay: SILAC LC-MS/MS of mAb column eluate E2, FLAG-NME1 293 lysate, untreated over acid/heat-treated
Chain of GNB1 in lysates of FLAG-NME1 HEK 293 cells (P62873 2-340 limits assumed): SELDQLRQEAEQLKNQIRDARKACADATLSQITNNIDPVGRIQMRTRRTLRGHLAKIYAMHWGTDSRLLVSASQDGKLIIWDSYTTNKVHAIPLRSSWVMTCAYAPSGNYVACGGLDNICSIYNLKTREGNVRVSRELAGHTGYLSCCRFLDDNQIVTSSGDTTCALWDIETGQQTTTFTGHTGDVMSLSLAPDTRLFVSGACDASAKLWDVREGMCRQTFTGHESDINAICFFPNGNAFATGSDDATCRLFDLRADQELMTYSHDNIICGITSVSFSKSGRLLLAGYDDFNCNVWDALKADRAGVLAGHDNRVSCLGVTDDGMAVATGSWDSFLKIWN
Procedure: A dramatic decrease of pHis in the heavy lysates was confirmed by immunoblotting. Both lysates were neutralized, diluted (1:5 to 1 M urea, pH 8), mixed together and one half was passed over the 1-pHis mAb column while the other half was passed over the 3-pHis mAb column. LC-MS/MS analysis was performed on tryptic peptides derived from proteins that eluted off the columns at pH 11. A SILAC ratio (light/heavy) was calculated for each peptide to determine which proteins were enriched in the untreated, light vs. heavy lysates that had been treated to reduce pHis.
After crosslinking, pHis mAb resins (˜750 μl each) were packed in 10 ml chromatography columns (BioRad) and stored at 4° C. in or equilibrated with Wash/Binding Buffer (50 mM Tris, 30 mM sodium carbonate pH 8 (prepared by dilution of 100 mM sodium carbonate buffer pH 10 with H₂O and 1 M Tris pH 7)). Stable isotope labeling by amino acids in cell culture (SILAC) was performed on FLAG-NME1 293 cells which were metabolically labeled with Arg (¹³C₆/¹⁵N₄) and Lys (¹³C₆). These “heavy” labeled cells were used as an internal negative control for pHis mAb binding. Non-labeled, “light” FLAG-NME1 293 cells were cultured in parallel. For cell lysis, precautions were taken to preserve pHis and avoid salts and detergents that can interfere with downstream MS analysis. […]

Chain of TUBB in lysates of FLAG-NME1 HEK 293 cells (human) (P07437 whole entry): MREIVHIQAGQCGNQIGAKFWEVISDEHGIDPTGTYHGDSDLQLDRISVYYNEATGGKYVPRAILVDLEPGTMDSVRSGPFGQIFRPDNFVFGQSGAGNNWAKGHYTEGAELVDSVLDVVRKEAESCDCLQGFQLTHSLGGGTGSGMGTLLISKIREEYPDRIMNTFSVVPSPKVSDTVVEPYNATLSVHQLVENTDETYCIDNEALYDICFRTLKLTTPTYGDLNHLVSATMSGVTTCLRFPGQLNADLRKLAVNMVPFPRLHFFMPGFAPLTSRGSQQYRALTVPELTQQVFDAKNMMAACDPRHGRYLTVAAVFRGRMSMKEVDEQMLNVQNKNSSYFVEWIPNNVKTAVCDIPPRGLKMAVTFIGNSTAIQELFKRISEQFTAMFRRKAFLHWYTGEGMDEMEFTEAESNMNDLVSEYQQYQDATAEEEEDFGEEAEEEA
Chain of GAPDH in lysates of FLAG-NME1 HEK 293 cells (human) (P04406 2-335 limits assumed): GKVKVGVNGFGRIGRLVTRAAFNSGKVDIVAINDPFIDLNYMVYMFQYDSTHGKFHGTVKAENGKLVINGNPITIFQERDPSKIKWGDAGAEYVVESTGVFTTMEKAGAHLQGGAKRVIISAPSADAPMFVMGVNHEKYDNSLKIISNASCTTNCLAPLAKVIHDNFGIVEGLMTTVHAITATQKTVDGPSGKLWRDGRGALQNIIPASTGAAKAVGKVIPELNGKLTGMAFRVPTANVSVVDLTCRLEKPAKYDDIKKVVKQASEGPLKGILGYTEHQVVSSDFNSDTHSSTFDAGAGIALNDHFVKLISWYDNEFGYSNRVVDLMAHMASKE

SILAC ratio (light/heavy) [1] [fold] | SILAC ratio (light/heavy) [2] [fold] | SILAC ratio (light/heavy) [3] [fold] | SILAC ratio (light/heavy) [4] [fold] | SILAC ratio (light/heavy) [5] [fold] | SILAC ratio (light/heavy) [6] [fold] | SILAC ratio (light/heavy) [7] [fold] | SILAC ratio (light/heavy) [8] [fold] | SILAC ratio (light/heavy) [9] [fold] | least amount detected [10] [ng] | least amount detected [11] [ng] | least amount detected [12] [ng] | least amount detected [13] [ng] | SILAC ratio (light/heavy) [14] [fold] | SILAC ratio (light/heavy) [15] [fold] | SILAC ratio (light/heavy) [16] [fold] | SILAC ratio (light/heavy) [17] [fold] | SILAC ratio (light/heavy) [20] [fold] | SILAC ratio (light/heavy) [21] [fold] | SILAC ratio (light/heavy) [22] [fold] | Molecule | further results
19.1 | 3.55 | 3.4 | 5.29 | 15.6 | 15.1 | 7.21 | 4.18 | 6.1 | 20 | 20 | 20 | 20 | 9.8 | 4.49 | 4.45 | 7.2 | 4.25 | 51.9 | 2.04 | anti-1-pHis mAb SC1-1 (antibody) | SILAC ratio (light/heavy) [18]: 56 fold; SILAC ratio (light/heavy) [19]: 1.68 fold; SILAC ratio (light/heavy) [23]: 9.1 fold; SILAC ratio (light/heavy) [24]: 6.5 fold; SILAC ratio (light/heavy) [25]: 5.99 fold
– | – | – | – | – | – | – | – | – | 20 | 20 | 20 | 20 | – | – | – | – | – | – | – | anti-1-pHis mAb SC50-3 (antibody) | –
22.8 | 4.33 | 4.76 | 11.6 | 3.46 | 118 | 10.4 | 6.6 | 5.98 | – | – | – | – | 17.9 | 2.09 | 3.32 | 2.99 | 2.44 | 2.14 | 1.63 | anti-3-pHis mAb SC39-4 (antibody, V domains shown, not shown: a dimerising Fc or GST, Rabbit hybridoma monoclonal IgG, used as whole IgG (free or crosslinked to protein-A agarose)) VH: ESGGRLVTPGGSLTLTCTVSGFSLSRYNMGWVRQAPGKGLEWIGWIPFRGSLKYATWATGRFTISRTSTTVDLRMTGLTAADTATYFCVRSSDGFDLWGPGTLVTVSS VL: QFVMTQTPASVEAVVGGTVTIKCQASRDTGDGLIWYQQKPGQPPKRLIYKASTVASGVPSRFKGRGSGTDFTLTISDLECADAATYYCHSNFYNRWTYGNAFGGGTEVVVKG | fold enrichment (SILAC ratio light/heavy) [26]: > 2 fold; SILAC ratio (light/heavy) [27]: 4.01 fold; SILAC ratio (light/heavy) [28]: 7.43 fold; SILAC ratio (light/heavy) [29]: 1.21 fold; SILAC ratio (light/heavy) [23]: 4.98 fold; SILAC ratio (light/heavy) [24]: 3.08 fold; SILAC ratio (light/heavy) [25]: 3.2 fold

From patent publication US20160033516A1 (SALK INSTITUTE FOR BIOLOGICAL STUDIES, published 2016)
